The record followed here is patent publication US7127357 (dated 2006).

In this assay the target is F25Y. The assay can be described thus: binding to CTD phosphopeptide.

Non-standard residues stand in square brackets, D forms with d. No end group written: not given here. pS = N[C@@H](COP(=O)(O)O)C(=O)O

B1: CTD Repeat Tyr-P.Ser-Pro-Thr-P.Ser-Pro-Ser (peptide)
peptide: Y[pS]PT[pS]PS
modifications: also: tetramethylrhodamine label on an amine, place not given here
A word on the Kd: it is the constant that tells how readily two partners part at equilibrium. Low readings indicate tighter binding, high ones weaker binding. On to B1, for which the Kd is 12 µM.
